Measurements reported in patent US20260167959A1, “APTAZYME-BASED REGULATABLE GENE EXPRESSION SYSTEMS” (REJUVENATE BIO INC, priority 2022, published 2026).

These molecules were tested on Renilla luciferase RNA (assay: Barcoded aptazyme variant library screen: un-cleaved Renilla luciferase RNA by barcode read counts, HEK293-T cells). Conditions: un-cleaved Renilla luciferase RNA, HEK293-T cells cultured with 1 mM theophylline (ON) over without theophylline (OFF); barcode read counts, triplicate.
Assay type: cell-based
In short: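 Aptazyme variants (seven theophylline aptamers inserted after each T3H48 ribozyme nucleotide, 9-nt barcoded) cloned into the 3′ UTR of Renilla luciferase in psiCHECK-2; cells cultured ± theophylline, in triplicate. RNA and DNA barcodes amplified and sequenced; normalized read counts gave un-cleaved RNA fraction and ON/OFF fold-change.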

Molecule	Fold change in RNA expression between the ON state and the OFF state
RA113 (nucleic acid, expressed or natural sequence) DNA: GCGCGTCCTGGATTCGCGGAAACGCGTACATCCAGCTGACGAGTCCCAAATAGGACGAAACGCGC	1.5 fold
RA128 (nucleic acid, expressed or natural sequence) DNA: GCGCGTCCTGGATTCGCGGAAACGCGTAAGTGATACCAGCATCGTCTTGATGCCCTTGGCAGCACTCATCCAGCTGACGAGTCCCAAATAGGACGAAACGCGC	1.4 fold
RA120 (nucleic acid, expressed or natural sequence) DNA: GCGCGTCCCCGGAATACCAGCATCGTCTTGATGCCCTTGGAAGTCCGGTGGATTCGCGGAAACGCGTACATCCAGCTGACGAGTCCCAAATAGGACGAAACGCGC	1.5 fold
RA125 (nucleic acid, expressed or natural sequence) DNA: GCGCGTCCTGGATTCGCGGAAACGCGTACATCCAGCTGACGAGTCCCGGAATACCAGCATCGTCTTGATGCCCTTGGAAGTCCGGCCAAATAGGACGAAACGCGC	1.5 fold
RA122 (nucleic acid, expressed or natural sequence) DNA: GCGCGTCCTGGATTCGCGGAAACGCGTACATCCAGCTGACGAGTCCCAAATAGGACGAGAATACCAGCATCGTCTTGATGCCCTTGGAAGTCTCGAAACGCGC	1.5 fold
RA012 (nucleic acid, expressed or natural sequence) DNA: GCGCGTCCTGGATTCGCGGAAACAGAATACCAGCATCGTCTTGATGCCCTTGGAAGTCTGCGTACATCCAGCTGACGAGTCCCAAATAGGACGAAACGCGC	3.4 fold
RA117 (nucleic acid, expressed or natural sequence) DNA: GCGCGTCCTGGATCGGAATACCAGCATCGTCTTGATGCCCTTGGAAGTCCGTCGCGGAAACGCGTACATCCAGCTGACGAGTCCCAAATAGGACGAAACGCGC	1.5 fold
RA121 (nucleic acid, expressed or natural sequence) DNA: GCGCGTCCTGGATTCGAGAATACCAGCATCGTCTTGATGCCCTTGGAAGTCTCGCGGAAACGCGTACATCCAGCTGACGAGTCCCAAATAGGACGAAACGCGC	1.5 fold
RA129 (nucleic acid, expressed or natural sequence) DNA: GCGCGTCCTGGATTCCACTTCGGGTACATCCAGCTGACGAGTCCCAAATAGGACGAAACGCGC	1.4 fold
RA111 (nucleic acid, expressed or natural sequence) DNA: GCGCGTCCTAGTGATACCAGCATCGTCTTGATGCCCTTGGCAGCACTGGATTCGCGGAAACGCGTACATCCAGCTGACGAGTCCCAAATAGGACGAAACGCGC	1.6 fold
RA126 (nucleic acid, expressed or natural sequence) DNA: GCGCGTCCTGGATTCGCGGAAACGCGTACAAGAATACCAGCATCGTCTTGATGCCCTTGGAAGTCTTCCAGCTGACGAGTCCCAAATAGGACGAAACGCGC	1.5 fold
RA108 (nucleic acid, expressed or natural sequence) DNA: GCGCGTCCTGGATTCGCGGCCGGAATACCAGCATCGTCTTGATGCCCTTGGAAGTCCGGAAACGCGTACATCCAGCTGACGAGTCCCAAATAGGACGAAACGCGC	1.6 fold
RA114 (nucleic acid, expressed or natural sequence) DNA: GCGCGTCCTGGATTCGCGGAAACGCGTACATCCAGCTGACGAGTCCCAAATAGGACGAGGAATACCAGCATCGTCTTGATGCCCTTGGAAGTCCAACGCGC	1.5 fold
RA107 (nucleic acid, expressed or natural sequence) DNA: GCGCGTCCTGGATTCGCGGAAACGCGTACATCCCGGAATACCAGCATCGTCTTGATGCCCTTGGAAGTCCGAGCTGACGAGTCCCAAATAGGACGAAACGCGC	1.6 fold
RA116 (nucleic acid, expressed or natural sequence) DNA: GCGCGTCCTGGATTCGCGGAAACGCGTACATCCAGCTGACGAGTCCCAAATAGGGAGAATACCAGCATCGTCTTGATGCCCTTGGAAGTCTCACGAAACGCGC	1.5 fold
RA130 (nucleic acid, expressed or natural sequence) DNA: GCGCGTCCTGGATTCGCGGAAACGCGTACATCCAGCTGAGAATACCAGCATCGTCTTGATGCCCTTGGAAGTCTCGACGAGTCCCAAATAGGACGAAACGCGC	1.4 fold
RA118 (nucleic acid, expressed or natural sequence) DNA: GCGCGTCCTGGATTCGCGGAAACGCGTACATCCAGCTGACGAGTCCCAAATAGGACGAGAGAATACCAGCATCGTCTTGATGCCCTTGGAAGTCTCAACGCGC	1.5 fold
RA109 (nucleic acid, expressed or natural sequence) DNA: GCGCCGAGAATACCAGCATCGTCTTGATGCCCTTGGAAGTCTCGGTCCTGGATTCGCGGAAACGCGTACATCCAGCTGACGAGTCCCAAATAGGACGAAACGCGC	1.6 fold
RA123 (nucleic acid, expressed or natural sequence) DNA: GCGCGTCCTGGATTCGCGGAAACGCGTCGGAATACCAGCATCGTCTTGATGCCCTTGGAAGTCCGACATCCAGCTGACGAGTCCCAAATAGGACGAAACGCGC	1.5 fold
RA011 (nucleic acid, expressed or natural sequence) DNA: GCGCGTCCTGGATTCGCGGAAACGCGTACATCCAGCTGACGAGTCCCGGAATACCAGCATCGTCTTGATGCCCTTGGAAGTCCGCAAATAGGACGAAACGCGC	3.6 fold
RA010 (nucleic acid, expressed or natural sequence) DNA: GCGCGTCCTGGACGAGAATACCAGCATCGTCTTGATGCCCTTGGAAGTCTCGTTCGCGGAAACGCGTACATCCAGCTGACGAGTCCCAAATAGGACGAAACGCGC	3.6 fold
RA124 (nucleic acid, expressed or natural sequence) DNA: GCGCGTCCTGGATTCGCGGAAACGCGTACATCCAGCTGACGCGGAATACCAGCATCGTCTTGATGCCCTTGGAAGTCCGAGTCCCAAATAGGACGAAACGCGC	1.5 fold
RA110 (nucleic acid, expressed or natural sequence) DNA: GCGCGTCCTGGGGAATACCAGCATCGTCTTGATGCCCTTGGAAGTCCATTCGCGGAAACGCGTACATCCAGCTGACGAGTCCCAAATAGGACGAAACGCGC	1.6 fold
RA131 (nucleic acid, expressed or natural sequence) DNA: GCGCGTCCTAGAATACCAGCATCGTCTTGATGCCCTTGGAAGTCTGGATTCGCGGAAACGCGTACATCCAGCTGACGAGTCCCAAATAGGACGAAACGCGC	1.4 fold
RA106 (nucleic acid, expressed or natural sequence) DNA: GCGCGTCCTGGATTCGCGGAAACGCGTACATCCAGCTGACCGGAATACCAGCATCGTCTTGATGCCCTTGGAAGTCCGGCGAGTCCCAAATAGGACGAAACGCGC	1.6 fold
RA112 (nucleic acid, expressed or natural sequence) DNA: GCGCGTCCTGGATTCGCGGAAACGCGTACATCCAGGGAATACCAGCATCGTCTTGATGCCCTTGGAAGTCCCTGACGAGTCCCAAATAGGACAAAACGCGC	1.5 fold
RA119 (nucleic acid, expressed or natural sequence) DNA: GCGCGTCCTGGATTCGCGGAAACGCGTACATCCAGAGAATACCAGCATCGTCTTGATGCCCTTGGAAGTCTCTGACGAGTCCCAAATAGGACGAAACGCGC	1.5 fold
RA115 (nucleic acid, expressed or natural sequence) DNA: GCGCGTCCTGGATTCGCGGAAACGCGTACATCCAGCTGACGAGTCCCAAATAGGACGAGAATACCAGCATCGTCTTGATGCCCTTGGAAGTCTAAACGCGC	1.5 fold
RA127 (nucleic acid, expressed or natural sequence) DNA: GCGCGTCCTGGATTCGCGGAAACGCGTACATCCAGCTGACGAGTCCCAAATAGGACGAAACGCGCCGGAATACCAGCATCGTCTTGATGCCCTTGGAAGTCCGGC	1.4 fold
